Measured values as given in the supplement of paper PMC9732359.
± gives the uncertainty stated by the source.

Experiment: protein stability index of a GFP-peptide fusion (yeast GPS) (PSI 1-4); higher = more stable; sorted into four equal gates, so the index is relative within each strain
Method in brief: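 Sequencing reads from sorted gates were used to score each peptide. The library consisted of tiled 17-residue yeast protein peptides fused downstream of GFP on a Cherry-expressing plasmid, pooled and carried in yeast. Mid-log cultures in leucine-free medium were split into four equal gates by GFP/Cherry ratio, and each gate's plasmids were PCR-amplified and Illumina-sequenced. The protein stability index adds up, over all gates, the read frequency multiplied by the gate number.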

Sequence | protein stability index (doa10∆) | protein stability index (pdr5∆) | protein stability index (san1∆) | protein stability index (ubr1∆)
ARHKKKVENLDYMYENG [YML031W/NDC1] | 3.41 ± 0.15 | 3.37 ± 0.14 | 3.08 ± 0.12 | –
ARIALRHLEKEGIIKPI [RPS25A] | 2.98 ± 0.092 | 3.37 ± 0.16 | 3.06 ± 0.094 | 3.12 ± 0.085
ARIVRVRSREDRKNRAP [RPS26A] | 3.55 ± 0.23 | – | 3.27 ± 0.26 | 2.87 ± 0.099
ARNVTFDSLRNFIVHSP [GRR1] | 2.14 ± 0.063 | 2.35 ± 0.057 | 2.25 ± 0.08 | 1.94 ± 0.041
ARQRGKLKKSEEKVLST [SRP68] | 3.28 ± 0.19 | 3.21 ± 0.11 | 3.33 ± 0.071 | 3.67 ± 0.21
ARRTLQKLGLDETYKGV [RPL5] | – | 2.97 ± 0.18 | 3.43 ± 0.14 | –
ARWPAKSVKFVQGLLQN [RPL17A] | 2.35 ± 0.097 | 2.17 ± 0.083 | 1.89 ± 0.088 | 2.13 ± 0.073
ARYYRTVAVLPPNWKYE [RPS13] | 1.89 ± 0.044 | 2.1 ± 0.039 | 2.18 ± 0.051 | 1.92 ± 0.029
ASAASEAIRDPKNSSSP [SSN8] | 2.61 ± 0.19 | 3.18 ± 0.2 | 2.46 ± 0.25 | 3.13 ± 0.13
ASAPLCSPKLPVEKVQR [DLS1] | 2.78 ± 0.068 | 3.07 ± 0.067 | 2.92 ± 0.053 | 3.03 ± 0.049
ASITPYKLVNKNKENNT [RPN4] | 1.08 ± 0.078 | 2.28 ± 0.092 | 2.48 ± 0.12 | 2.11 ± 0.07
ASLVDYVQVRQPIFVAH [RPS5] | 1.99 ± 0.1 | 1.98 ± 0.069 | 2.1 ± 0.14 | 1.67 ± 0.11
ASLVPEGNQGSLQEDVS [MED8] | 3.19 ± 0.096 | 3.24 ± 0.087 | 2.9 ± 0.048 | 2.41 ± 0.097
ASPHASVRTAVFSALKN [ECM29] | 1.56 ± 0.051 | 1.58 ± 0.05 | 1.25 ± 0.083 | 1.42 ± 0.056
ASSTPIPVLGKPTDATG [YOR098C/NUP1] | 2.43 ± 0.055 | 2.88 ± 0.055 | 2.6 ± 0.05 | 2.42 ± 0.036
ASVRIKDKFNQIPLHRA [NAS6] | 2.55 ± 0.095 | 2.68 ± 0.12 | 2.91 ± 0.14 | 3.17 ± 0.055
ASYAKYLIDHIKVEGAV [RPL22A] | 2.95 ± 0.17 | 3.13 ± 0.15 | 2.85 ± 0.092 | 3.23 ± 0.11
ATDISGELRDYIEDFLL [YJR042W/NUP85] | 3.31 ± 0.1 | 3.31 ± 0.081 | 3.22 ± 0.056 | 3.3 ± 0.041
ATFLKDDLPYYVNALAD [QCR2] | 2.37 ± 0.047 | 2.21 ± 0.046 | 2.27 ± 0.053 | 2.35 ± 0.032
ATGHRVLIFFQMTQIMD [SNF2] | 1.84 ± 0.082 | 2.51 ± 0.069 | 2.72 ± 0.094 | 2.64 ± 0.13
ATGNESQDATKVDATPE [YLR335W/NUP2] | 2.87 ± 0.086 | 3.22 ± 0.082 | 3.04 ± 0.066 | 2.94 ± 0.099
ATHLPKDNVEHLVMRAI [RPN9] | 2.88 ± 0.089 | 3.09 ± 0.07 | 2.77 ± 0.067 | 2.9 ± 0.06
ATPQEAQFYLGKRIAYV [RPL33B] | 1.64 ± 0.11 | 2.2 ± 0.068 | 1.76 ± 0.076 | 2.43 ± 0.077
ATSKTSEMLAKYSDILL [CDC53] | 3.11 ± 0.091 | 3.18 ± 0.099 | 2.99 ± 0.1 | 3.07 ± 0.048
ATTQDQVASIIESFVEL [NUT2] | 2.11 ± 0.071 | 2.65 ± 0.076 | 2.17 ± 0.15 | 2.49 ± 0.054
ATYSNEFKCMSVITAQQ [YGL100W/SEH1] | 1.75 ± 0.053 | 1.48 ± 0.042 | 1.46 ± 0.085 | 2.01 ± 0.031

Sequence | protein stability index (doa10∆) | protein stability index (pdr5∆) | protein stability index (san1∆) | protein stability index (ubr1∆)
AVALAASDLVLIVIDVV [SNU114] | 2.08 ± 0.052 | 2.5 ± 0.06 | 2.75 ± 0.094 | 2.13 ± 0.05
AVAVGNVEMEEDVLVNQ [RPL1A] | 2.19 ± 0.091 | 2.17 ± 0.075 | 1.17 ± 0.11 | 2 ± 0.059
AVDKVISGYKKFSSTSR [RPT1] | 3.46 ± 0.27 | 3.87 ± 0.23 | 3.21 ± 0.16 | 3.74 ± 0.14
AVHVTVRGPKAEEILER [RPL11A] | 2.99 ± 0.11 | 2.98 ± 0.094 | 2.92 ± 0.12 | 3.05 ± 0.074
AVINIRDDGKRELLVEG [RPO31] | 3.56 ± 0.2 | 3.06 ± 0.22 | – | 3.14 ± 0.1
AVKNKYNVGKQLSNEII [PRP28] | 2.08 ± 0.066 | 2.52 ± 0.074 | 2.17 ± 0.088 | 2.3 ± 0.069
AVKYGLNHVVSLIENKK [RPL8B] | 2.25 ± 0.079 | 2.37 ± 0.077 | 2.26 ± 0.089 | 2.01 ± 0.047
AVPLQIVSPQSNKPCMG [RPO21] | 1.72 ± 0.059 | 1.71 ± 0.038 | 2.03 ± 0.065 | 1.78 ± 0.035
AVPRDELGRSNYGMIAI [FAS1] | 2.97 ± 0.17 | 3.16 ± 0.15 | 3.28 ± 0.071 | 3.33 ± 0.22
AVRLILPGELAKHAVSE [HTB1] | 3.23 ± 0.095 | 2.98 ± 0.064 | 1.52 ± 0.17 | 3.28 ± 0.064
AWRTLVGVSHTNEEVRN [CYT1] | – | 2.98 ± 0.13 | 1.92 ± 0.15 | 2.18 ± 0.094
AYKFEEVSKDLIAVYYS [RPB8] | 2.94 ± 0.071 | 3.14 ± 0.067 | 3.32 ± 0.045 | 3.11 ± 0.055
AYRTDVIQALGGIETIL [PRP8] | 1.44 ± 0.073 | 1.54 ± 0.066 | 1.46 ± 0.13 | 1.45 ± 0.054
CAECSSKLSLSRTDAVR [RPC10] | 2.12 ± 0.049 | 2.16 ± 0.047 | 2.51 ± 0.061 | 2.35 ± 0.05
CAEGIFVVKLDTVDRLI [GAL11] | 2.89 ± 0.12 | 3.13 ± 0.11 | 3.02 ± 0.13 | 2.62 ± 0.092
CAINSKSRGSDLQYLGE [RRP6] | 3.11 ± 0.06 | 3.18 ± 0.068 | 2.7 ± 0.069 | 3.2 ± 0.053
CANCVKERIVRAFLIEE [RPL34B] | – | 3.47 ± 0.26 | – | –
CARFLGNRGFSIGINDV [RPO31] | 2.32 ± 0.21 | – | – | 2.88 ± 0.21
CDSYLDADKELSFEINV [BRR2] | 2.64 ± 0.08 | 2.73 ± 0.062 | 2.92 ± 0.057 | 2.7 ± 0.047
CEAAVEISKKDFVRKGG [SIR3] | 3.19 ± 0.11 | 2.9 ± 0.065 | 3.22 ± 0.068 | 3.25 ± 0.064
CELLKLTNEDPPGLMYL [SSN2] | 2.85 ± 0.18 | 3.06 ± 0.19 | 3.26 ± 0.12 | 3.36 ± 0.11
CELQVETYGSMEMSEKI [RPN5] | 2.76 ± 0.096 | 2.96 ± 0.074 | 2.71 ± 0.071 | 2.84 ± 0.077
CESCSTVLCTPTGGKAK [RPS27B] | 1.94 ± 0.068 | 2.5 ± 0.056 | 2.07 ± 0.081 | 2.51 ± 0.053
CGAGVFLANHKDRLYCG [RPS31] | 2.19 ± 0.097 | 1.46 ± 0.16 | 1.06 ± 0.21 | 2.5 ± 0.2
CGAWEPAITIEKLKQFS [SIR3] | 1.97 ± 0.087 | 1.76 ± 0.079 | 2.58 ± 0.13 | 1.54 ± 0.072
CGFWQPAWRVWLNFLRG [PRP8] | 2.52 ± 0.072 | 2.87 ± 0.12 | 1.62 ± 0.13 | 2.35 ± 0.062
